# Measured values as given in patent publication US11360100B2, “Methods and compositions useful in detecting proteins” (OREGON HEALTH & SCIENCE UNIVERSITY, priority 2016, dated 2022).
# “Also recorded” adds a separate entry of the source. AF647 = AlexaFluor 647; Cy5 = Cy5 cyanine dye
# B1: CoilZ-fluorescein: green fluorescent CoilZ probe peptide, maleimide conjugate (conjugate)
# peptide: MGSSQKVAQLKNRVAYKLKENAKLENIVARLENDNANLEKDIANLEKDIANLERDVARGGGAAACLGKLAAALEHHHHHH
# B2: CoilY-AF647: CoilY probe peptide conjugated to AlexaFluor 647 (conjugate)
# peptide: MGSSNTVKELKNYIQELEERNAELKNLKEHLKFAKAELEFELAAHKFEGGGAAAC(AF647)LGKLAAALEHHHHHH
# modifications: not fully specified
# B3: CoilR-Cy5: CoilR probe peptide conjugated to Cy5 (conjugate)
# peptide: MGGSLEIRAAFLRQRNTALRTEVAELEQEVQRLENEVSQYETRYGPLGGGAAALGC(Cy5)LAAALEHHHHHH
# What was measured:
# His6-CoilY-mCherry = experiment: Detection limit comparison on PVDF membrane (peptide vs immunolabeling); type: binding; conditions: serial dilutions 400 ng to 0.8 ng
# Description: FIG. 10 is a detection limit comparison between peptide and immunolabeling. Serial dilutions of CoilY-mCherry (400 ng to 0.8 ng) were run on two identical SDS-PAGE gels before transfer to a PVDF membrane. The first membrane (top) was treated with CoilZ-fluorescein (CoilZ-FL) and imaged (ex 475/42 nm; em 537/35 nm). The second membrane (bottom) was labeled using an AF488-conjugated anti-His antibody “AF488-His” (QIAGEN, product number 35310) and imaged (475/42 nm excitation, 537/35 nm emission).
# The disclosed method is a sensitive alternative to fluorescent immunoblotting. Purified His6-CoilY-mCherry was generated and the sensitivity of detection of the His6-CoilY-mCherry using our CoilZ-fluorescein was compared to that of an AF488-labeled anti-His antibody from Qiagen. CoilZ-fluorescein could detect as little as 3 ng of His6-CoilY-mCherry, while the antibody required 8-fold more target protein (FIG. 10).
# Specifically, purified His6-mCherry and His6-CoilY-mCherry were loaded on a 10% SDS-PAGE gel for separation. Electrophoresis occurred at 165 V for 1 h. […]
# Decreasing quantities of purified CoilY-mCherry (400 ng to 0.8 ng) were resolved by SDS-PAGE and transferred to a PVDF membrane. […] CoilY-mCherry was detected by blotting with anti-pentahistidine mouse antibody conjugated to AlexaFluor488 (1:5000, QIAGEN; product number 35310). […]
# [1] = system: untagged mCherry and DHFR; experiment: SDS-PAGE/PVDF membrane labeling, untagged proteins; type: binding; conditions: lysates and purified proteins, PVDF membrane
# Description: Crude lysates (lys.) and purified proteins (serial dilutions) were resolved by SDS-PAGE. Lysates were prepared from HERK 293FT cells transfected with mCherry, CoilY-mCherry, DHFR, and CoilE-DHFR. The protein gel was transferred to a PVDF membrane and then incubated with CoilZ-Fluorescein and CoilR-rhodamine. After washing, the membrane was imaged to detect VIPER labeling of DHFR (red) and VIP Y/Z labeling of mCherry (green). Untagged proteins were not labeled by either CoilR-rhodamine or CoilZ-fluorescein.
# (§1) A protein gel-based assay was optimized for analyzing VIP tags in vitro. Cell lysates were made from cells transfected with mCherry, CoilY-mCherry, GFP, or CoilZ-GFP, resolved by SDS-PAGE, and transferred to a membrane. GFP and mCherry fluorescence were not preserved in this experiment. The membrane was then contacted with CoilZ-fluorescein and CoilY-rhodamine before imaging. […] The probe peptides were specific for each tagged protein, and this single pair enabled specific and selective protein tagging of two distinct targets. In addition both the VIP E/R and VIP Y/Z tag sets could be used concurrently to label two recombinant proteins (DHFR and mCherry) without crosstalk (FIG. 23).
# CoilY-mCherry [2] = experiment: SDS-PAGE/PVDF membrane labeling of transfected HEK293FT lysates, CoilY-mCherry; type: binding; conditions: cell lysates, SDS-PAGE, PVDF membrane
# Description: The CoilY and CoilZ pair could be used to label two protein targets simultaneously. Transfected HEK293FT cell lysates from cells expressing mCherry, CoilY-mCherry, EGFP, or CoilZ-EGFP were resolved by SDS-PAGE and transferred to a PVDF membrane. The membrane was incubated sequentially with CoilZ-fluorescein and CoilY-rhodamine before imaging. GFP and mCherry fluorescence was not preserved due to SDS-PAGE protein denaturation.
# as §1
# CoilY-EGFP = experiment: Fluorescence microscopy labeling of cell-surface CoilY-GFP (CoilY-EGFP); type: cell-based, human; conditions: fluorescence microscopy
# Description: (§2) Fluorescence microscopy was used to confirm that the VIP Y/Z tag set enabled selective fluorescent labeling of proteins (FIGS. 3A and 3B). CoilZ was expressed by fusion to a cell-surface localized variant of GFP (CoilZ-GFP; pDisplay vector). […] Labeling was rapid (<30 min), target-specific, and live-cell compatible. Homodimerization between a CoilZ probe peptide and CoilZ-GFP was not observed. Cells expressing untagged GFP were not labeled with the CoilY probe peptide. CoilY was also expressed fused to the cell surface localized GFP and visualized using a CoilZ-AF647 probe peptide (FIG. 3B). No homodimerization of CoilY was observed, and the labeling was specific.
# The CoilY/CoilZ tag set is bidirectional—either CoilZ or CoilY can serve as the probe peptide. CoilY-EGFP was expressed on the surface of U2OS cells and labeled with CoilZ-AF647. Protein labeling was rapid (<30 min) and specific; non-specific labeling of untagged EGFP was not observed. Homodimerization was not observed for either CoilZ-AF647 with CoilZ-EGFP or CoilY-AF647 with CoilY-EGFP (FIG. 3B).
# (§3) The CoilY/CoilZ tag set is also compatible with live-cell imaging. CoilZ-EGFP was contacted with CoilY-AF647 in live U2OS cells. […] Homodimerization was not observed for CoilY-EGFP incubated with CoilY-AF647. Non-specific labeling of untagged GFP was not observed (FIG. 26). Cells internalize labeled targets over time. CoilZ-GFP and CoilY-AF647 co-localization was observed on the surface and in endocytic vesicles due to rapid internalization, and AF647 signal accumulated inside cells during a 40 min. long incubation at room temperature (FIG. 12).
# untagged EGFP-TM = experiment: Flow cytometry of probe labeling, live U-2 OS cells expressing untagged EGFP-TM; type: cell-based, human; conditions: 500 nM probe
# Description: (§4) The in vitro results were translated to living cells. Flow cytometry was used to evaluate protein labeling in live human osteosarcoma (U-2 OS) cells expressing CoilZ-EGFP-TM, CoilY-EGFP-TM, or untagged EGFP-TM (FIG. 11). Cells were treated with 500 nM AF647-conjugated probe peptide before analysis, and we gated for EGFP-expressing cells. […] Non-specific labeling of untagged EGFP-TM and homodimerization with CoilY-EGFP-TM were minimal for cells exposed to CoilY-AF647. Cells expressing CoilY-EGFP-TM were labeled with CoilZ-AF647, but with only a 4-fold enhancement.
# Protein labeling was assessed as a function of CoilY-AF647 concentration (FIG. 25). Live cells expressing CoilZ-EGFP-TM or untagged EGFP-TM were treated with a range of CoilY-AF647 concentrations (50 nM to 1000 nM for 30 min at room temperature). […] Cells had 21- to 44-fold higher median fluorescence compared to cells expressing untagged protein. Treatment with 300 nM AF647-CoilY gave optimal labeling, with 98% of cells labeled and a 35-fold increase in AF647 fluorescence. Treatment with an excess of probe peptide (i.e., 1000 nM) enhanced the AF647 signal, but at the cost of a small increase in non-specific labeling.
# CoilZ-EGFP-TM = experiment: Flow cytometry of probe labeling, live U-2 OS cells expressing CoilZ-EGFP-TM; type: cell-based, human
# Source text: (§5) Cells were gated for green fluorescence and analyzed for labeling with CoilY-AF647 (A) or CoilZ-AF647 (B). Transfected cells expressed CoilZ-EGFP-TM (green), CoilY-EGFP-TM (blue), or untagged EGFP-TM (gray). Values in bold indicate the median AF647 fluorescence for each cell population.
# FIGS. 25A and 25B provide flow analysis of cells treated with CoilY-AF647. In FIG. 25A U-2 OS cells were transfected with EGFP-TM or CoilZ-EGFP-TM and treated with increasing concentrations of CoilY-AF647. Single, live, green fluorescent cells expressing untagged (left) or tagged (right) EGFP-TM were counted and analyzed for labeling without probe peptide (0 nM) or with CoilY-AF647 (50, 100, 300, 500, 750, or 1000 nM). Values within each histogram indicate the median AF647 fluorescence for each cell population. Data analyzed included between 26,000 and 35,000 live, singlet GFP+ cells.
# The in vitro results were translated to living cells. Flow cytometry was used to evaluate protein labeling in live human osteosarcoma (U-2 OS) cells expressing CoilZ-EGFP-TM, CoilY-EGFP-TM, or untagged EGFP-TM (FIG. 11). […]
# Protein labeling was assessed as a function of CoilY-AF647 concentration (FIG. 25). […] Cells had 21- to 44-fold higher median fluorescence compared to cells expressing untagged protein. Treatment with 300 nM AF647-CoilY gave optimal labeling, with 98% of cells labeled and a 35-fold increase in AF647 fluorescence. […]
# [3] = system: untagged GFP/EGFP and mCherry; experiment: Fluorescence microscopy, cells expressing untagged fluorescent proteins; type: cell-based, human
# Description: as §2
# (§6) It was next confirmed that the VIP Y/Z tag set could be used in two-target imaging in fixed cells (FIGS. 5B and 13). A combination of cell lines singly-transfected with mCherry, GFP, CoilY-mCherry, or CoilZ-GFP was used, as illustrated in FIG. 9. […] Then we labeled two tagged FPs in one sample using a mixed population of cells expressing either CoilY-mCherry or CoilZ-GFP.
# (§7) The disclosed methods were tested in transfected human osteosarcoma cells (U-2 OS). A pDisplay vector was used to target CoilZ-EGFP and untagged EGFP to the cell surface. This construct includes a C-terminal fusion to the transmembrane domain of the platelet derived growth factor receptor. As expected, both CoilZ-EGFP and untagged EGFP localized to the cell surface, and green fluorescence was observed within 24 h of transfection. Then the cells were blocked with 6% BSA and 10% FBS for 30 minutes at 37° C. and then contacted with an AF647-conjugated CoilY probe (CoilY-AF647), 30 min at 4° C. Cells were fixed before imaging by confocal fluorescence microscopy. The probe peptides are membrane impermeant; only cell-surface EGFP was accessible to CoilY-AF647 for labeling. Colocalization of green fluorescent CoilZ-EGFP with CoilY-AF647 was observed.
# The CoilY/CoilZ tag set is bidirectional—either CoilZ or CoilY can serve as the probe peptide. CoilY-EGFP was expressed on the surface of U2OS cells and labeled with CoilZ-AF647. […]
# CoilZ-EGFP = experiment: Fluorescence microscopy labeling of cell-surface CoilZ-GFP (CoilZ-EGFP); type: cell-based, human
# Description: as §2, §6, §7, §3
# The VIPY/Z tag set can be used to label multiple protein targets simultaneously. Cells expressing CoilY-mCherry were combined with those expressing CoilZ-EGFP-pDisplay (FIG. 9). This mixed cell population, as well as unmixed CoilZ-GFP, CoilY-mCherry, and untagged controls, were plated for imaging. […] Fluorescence was detected by confocal fluorescence imaging. […]
# CoilY-EGFP-TM = experiment: Flow cytometry of probe labeling, live U-2 OS cells expressing CoilY-EGFP-TM; type: cell-based, human; conditions: 500 nM probe
# Source text: as §5, §4
# CoilY-mCherry [4] = experiment: Two-target fluorescence imaging, cells expressing CoilY-mCherry; type: cell-based; conditions: fluorescence microscopy
# Source text: as §6
# The VIPY/Z tag set can be used to label multiple protein targets simultaneously. Cells expressing CoilY-mCherry were combined with those expressing CoilZ-EGFP-pDisplay (FIG. 9). This mixed cell population, as well as unmixed CoilZ-GFP, CoilY-mCherry, and untagged controls, were plated for imaging. After blocking for 30 minutes at 37° C. with 6% BSA, 10% FBS, cells were treated at 4° C. with 500 nM CoilZ-biotin for 15 min and then 500 nM CoilY-AF647 for 15 min. […] Cells were then fixed, blocked for 1 hour with 6% BSA, 10% FBS and treated with Qdot565-conjugated streptavidin in order to label CoilZ-biotin. Fluorescence was detected by confocal fluorescence imaging. […] So the CoilY/Z tag set can be used to image up to four proteins at once.
# [5] = system: untagged mEmerald constructs; experiment: VIPER labeling of fixed, permeabilized U-2 OS cells, untagged constructs; type: cell-based; conditions: 100 nM probe, same acquisition settings
# Description: The CoilE and CoilR peptides were assessed for their ability to label intracellular structures without perturbing normal trafficking and distribution of the tagged proteins. U-2 OS cells were transfected with mEmerald-actin-C18, mEmerald-CoilE-actin-C18, H2B-6-mEmerald, H2B-6-CoilE-mEmerald, Mito-7-mEmerald, and Mito-7-CoilE-mEmerald and fixed with 4% PFA 24 hours after transfection. Cells were then lightly permeabilized and then labeled with 100 nM CoilR-Cy5 in a blocking buffer. Cells were fixed and imaged using with line-scanning confocal microscope. […] VIPER labeling was specific, given by the colocalization of features between the VIPER(Cy5) and mEmerald signal.
# untagged TfR1 = biological target: T1, untagged TfR1 (Homo sapiens, UniProt P02786); experiment: CoilR probe labeling of CHO TRVb cells expressing untagged TfR1; type: cell-based; conditions: labeled at 4° C.
# T1 construct: expressed in transfected cells; host or cells: CHO TRVb
# T1 sequence (P02786 whole entry): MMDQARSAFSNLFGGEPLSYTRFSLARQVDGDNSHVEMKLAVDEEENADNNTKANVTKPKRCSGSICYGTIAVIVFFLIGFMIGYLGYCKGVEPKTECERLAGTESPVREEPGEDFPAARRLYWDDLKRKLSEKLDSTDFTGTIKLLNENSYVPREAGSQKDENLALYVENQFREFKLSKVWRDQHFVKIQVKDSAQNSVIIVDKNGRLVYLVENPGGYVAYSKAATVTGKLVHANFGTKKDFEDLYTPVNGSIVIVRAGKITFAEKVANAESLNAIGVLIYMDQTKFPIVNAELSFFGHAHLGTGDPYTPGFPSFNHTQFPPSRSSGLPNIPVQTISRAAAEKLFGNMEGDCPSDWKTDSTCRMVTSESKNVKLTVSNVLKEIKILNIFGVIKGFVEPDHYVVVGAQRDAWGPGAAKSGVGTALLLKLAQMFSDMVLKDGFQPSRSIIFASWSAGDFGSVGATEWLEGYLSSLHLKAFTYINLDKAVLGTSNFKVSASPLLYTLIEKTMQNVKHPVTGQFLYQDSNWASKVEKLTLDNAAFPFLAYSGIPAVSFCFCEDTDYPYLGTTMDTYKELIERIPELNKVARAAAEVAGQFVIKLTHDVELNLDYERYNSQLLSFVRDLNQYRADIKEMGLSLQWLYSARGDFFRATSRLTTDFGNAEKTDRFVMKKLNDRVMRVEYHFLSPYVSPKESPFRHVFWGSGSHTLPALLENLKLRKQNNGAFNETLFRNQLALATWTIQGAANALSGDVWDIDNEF
molecule,measurement,setting,value
B1,least amount of His6-CoilY-mCherry detected,His6-CoilY-mCherry,3 ng
same,labeling of untagged proteins on membrane,[1],not labeled
same,probe peptide binding to CoilY-mCherry on membrane,CoilY-mCherry [2],specific coiled-coil heterodimer formation could be detected; also recorded: Probe peptide binding was detected
B2,homodimerization of CoilY probe with CoilY-GFP/EGFP,CoilY-EGFP,not observed
same,non-specific labeling of untagged EGFP-TM,untagged EGFP-TM,minimal
same,cells labeled,CoilZ-EGFP-TM; 300 nM probe,98%
same,enhancement of protein labeling (AF647 fluorescence),"CoilZ-EGFP-TM; 500 nM probe, live U-2 OS, gated for EGFP",greater than 40 fold
same,non-specific labeling of untagged fluorescent proteins,[3],did not interact; also recorded: No CoilY-AF647 labeling was detected; also recorded: not observed
same,labeling time (rapid),"CoilZ-EGFP; cell-surface CoilZ-GFP/EGFP, live-cell compatible",< 30 min
same,"labeling of CoilZ-GFP/EGFP (specificity, colocalization)",CoilZ-EGFP; fluorescence microscopy,target-specific; also recorded: labeled; also recorded: Colocalization; also recorded: specifically label
same,homodimerization with CoilY-EGFP-TM,CoilY-EGFP-TM,minimal
same,homodimerization / cross-reactivity of CoilY probe with CoilY-mCherry,CoilY-mCherry [4],not observed; also recorded: no cross-reactivity
B3,Cy5 signal in cells expressing untagged mEmerald constructs,[5],no significant Cy5 signal
same,labeling of cells expressing untagged TfR1,untagged TfR1,no CoilR-Cy5 signal; also recorded: showed now labeling
